Laboratory results: patent US20180155451A1 (published 2018)

Molecular target: FcγRIIa H (human FcγRIIa, allotype with His at position 131), extracellular domain with C-terminal His tag (human, UniProt P12318 34-217)
Experiment: SPR (Biacore), antibody captured on antigen peptide chip, FcγR as analyte; relative to HeCon Ab GpH7-A5/GpH7-B3/GpL16-k0 = 100

Binder	He/Con_2aH [control = 100]
GpH7-A5/GpH7-B3 variant A327_09D/GpL16-k0 (antibody, human IgG1, kappa, heterodimerized, mutation in one H chain only; also called He Ab) heavy 1: not shown heavy 2: not shown light: DIVMTQSPLSLPVTPGEPASISCQASESLVHSNRNTYLHWYLQKPGQSPQLLIYKVSNRFSGVPDRFSGSGSGTDFTLKISRVEAEDVGVYYCSQNTHVPPTFGQGTKVEIERTVAAPSVFIFPPSDEQLKSGTASVVCLLNNFYPREAKVQWKVDNALQSGNSQESVTEQDSKDSTYSLSSTLTLSKADYEKHKVYACEVTHQGLSSPVTKSFNRGEC	105
GpH7-A5/GpH7-B3 variant G236_15Y/GpL16-k0 (antibody, human IgG1, kappa, heterodimerized, mutation in one H chain only; also called He Ab) heavy 1: not shown heavy 2: not shown light: DIVMTQSPLSLPVTPGEPASISCQASESLVHSNRNTYLHWYLQKPGQSPQLLIYKVSNRFSGVPDRFSGSGSGTDFTLKISRVEAEDVGVYYCSQNTHVPPTFGQGTKVEIERTVAAPSVFIFPPSDEQLKSGTASVVCLLNNFYPREAKVQWKVDNALQSGNSQESVTEQDSKDSTYSLSSTLTLSKADYEKHKVYACEVTHQGLSSPVTKSFNRGEC	136
GpH7-A5/GpH7-B3 variant S239_08L/GpL16-k0 (antibody, human IgG1, kappa, heterodimerized, mutation in one H chain only; also called He Ab) heavy 1: not shown heavy 2: not shown light: DIVMTQSPLSLPVTPGEPASISCQASESLVHSNRNTYLHWYLQKPGQSPQLLIYKVSNRFSGVPDRFSGSGSGTDFTLKISRVEAEDVGVYYCSQNTHVPPTFGQGTKVEIERTVAAPSVFIFPPSDEQLKSGTASVVCLLNNFYPREAKVQWKVDNALQSGNSQESVTEQDSKDSTYSLSSTLTLSKADYEKHKVYACEVTHQGLSSPVTKSFNRGEC	105
GpH7-A5/GpH7-B3 variant G236_04F/GpL16-k0 (antibody, human IgG1, kappa, heterodimerized, mutation in one H chain only; also called He Ab) heavy 1: not shown heavy 2: not shown light: DIVMTQSPLSLPVTPGEPASISCQASESLVHSNRNTYLHWYLQKPGQSPQLLIYKVSNRFSGVPDRFSGSGSGTDFTLKISRVEAEDVGVYYCSQNTHVPPTFGQGTKVEIERTVAAPSVFIFPPSDEQLKSGTASVVCLLNNFYPREAKVQWKVDNALQSGNSQESVTEQDSKDSTYSLSSTLTLSKADYEKHKVYACEVTHQGLSSPVTKSFNRGEC	118
GpH7-A5/GpH7-B3 variant K334_13S/GpL16-k0 (antibody, human IgG1, kappa, heterodimerized, mutation in one H chain only; also called He Ab) heavy 1: not shown heavy 2: not shown light: DIVMTQSPLSLPVTPGEPASISCQASESLVHSNRNTYLHWYLQKPGQSPQLLIYKVSNRFSGVPDRFSGSGSGTDFTLKISRVEAEDVGVYYCSQNTHVPPTFGQGTKVEIERTVAAPSVFIFPPSDEQLKSGTASVVCLLNNFYPREAKVQWKVDNALQSGNSQESVTEQDSKDSTYSLSSTLTLSKADYEKHKVYACEVTHQGLSSPVTKSFNRGEC	102
GpH7-A5/GpH7-B3 variant L234_04F/GpL16-k0 (antibody, human IgG1, kappa, heterodimerized, mutation in one H chain only; also called He Ab) heavy 1: not shown heavy 2: not shown light: DIVMTQSPLSLPVTPGEPASISCQASESLVHSNRNTYLHWYLQKPGQSPQLLIYKVSNRFSGVPDRFSGSGSGTDFTLKISRVEAEDVGVYYCSQNTHVPPTFGQGTKVEIERTVAAPSVFIFPPSDEQLKSGTASVVCLLNNFYPREAKVQWKVDNALQSGNSQESVTEQDSKDSTYSLSSTLTLSKADYEKHKVYACEVTHQGLSSPVTKSFNRGEC	120
GpH7-A5/GpH7-B3 variant E333_04F/GpL16-k0 (antibody, human IgG1, kappa, heterodimerized, mutation in one H chain only; also called He Ab) heavy 1: not shown heavy 2: not shown light: DIVMTQSPLSLPVTPGEPASISCQASESLVHSNRNTYLHWYLQKPGQSPQLLIYKVSNRFSGVPDRFSGSGSGTDFTLKISRVEAEDVGVYYCSQNTHVPPTFGQGTKVEIERTVAAPSVFIFPPSDEQLKSGTASVVCLLNNFYPREAKVQWKVDNALQSGNSQESVTEQDSKDSTYSLSSTLTLSKADYEKHKVYACEVTHQGLSSPVTKSFNRGEC	102
GpH7-A5/GpH7-B3 variant I336_10E/GpL16-k0 (antibody, human IgG1, kappa, heterodimerized, mutation in one H chain only; also called He Ab) heavy 1: not shown heavy 2: not shown light: DIVMTQSPLSLPVTPGEPASISCQASESLVHSNRNTYLHWYLQKPGQSPQLLIYKVSNRFSGVPDRFSGSGSGTDFTLKISRVEAEDVGVYYCSQNTHVPPTFGQGTKVEIERTVAAPSVFIFPPSDEQLKSGTASVVCLLNNFYPREAKVQWKVDNALQSGNSQESVTEQDSKDSTYSLSSTLTLSKADYEKHKVYACEVTHQGLSSPVTKSFNRGEC	102
GpH7-A5/GpH7-B3 variant I336_18N/GpL16-k0 (antibody, human IgG1, kappa, heterodimerized, mutation in one H chain only; also called He Ab) heavy 1: not shown heavy 2: not shown light: DIVMTQSPLSLPVTPGEPASISCQASESLVHSNRNTYLHWYLQKPGQSPQLLIYKVSNRFSGVPDRFSGSGSGTDFTLKISRVEAEDVGVYYCSQNTHVPPTFGQGTKVEIERTVAAPSVFIFPPSDEQLKSGTASVVCLLNNFYPREAKVQWKVDNALQSGNSQESVTEQDSKDSTYSLSSTLTLSKADYEKHKVYACEVTHQGLSSPVTKSFNRGEC	103
GpH7-A5/GpH7-B3 variant K326_07I/GpL16-k0 (antibody, human IgG1, kappa, heterodimerized, mutation in one H chain only; also called He Ab) heavy 1: not shown heavy 2: not shown light: DIVMTQSPLSLPVTPGEPASISCQASESLVHSNRNTYLHWYLQKPGQSPQLLIYKVSNRFSGVPDRFSGSGSGTDFTLKISRVEAEDVGVYYCSQNTHVPPTFGQGTKVEIERTVAAPSVFIFPPSDEQLKSGTASVVCLLNNFYPREAKVQWKVDNALQSGNSQESVTEQDSKDSTYSLSSTLTLSKADYEKHKVYACEVTHQGLSSPVTKSFNRGEC	100
GpH7-A5/GpH7-B3 variant A330_19Q/GpL16-k0 (antibody, human IgG1, kappa, heterodimerized, mutation in one H chain only; also called He Ab) heavy 1: not shown heavy 2: not shown light: DIVMTQSPLSLPVTPGEPASISCQASESLVHSNRNTYLHWYLQKPGQSPQLLIYKVSNRFSGVPDRFSGSGSGTDFTLKISRVEAEDVGVYYCSQNTHVPPTFGQGTKVEIERTVAAPSVFIFPPSDEQLKSGTASVVCLLNNFYPREAKVQWKVDNALQSGNSQESVTEQDSKDSTYSLSSTLTLSKADYEKHKVYACEVTHQGLSSPVTKSFNRGEC	102
GpH7-A5/GpH7-B3 variant S239_10E/GpL16-k0 (antibody, human IgG1, kappa, heterodimerized, mutation in one H chain only; also called He Ab) heavy 1: not shown heavy 2: not shown light: DIVMTQSPLSLPVTPGEPASISCQASESLVHSNRNTYLHWYLQKPGQSPQLLIYKVSNRFSGVPDRFSGSGSGTDFTLKISRVEAEDVGVYYCSQNTHVPPTFGQGTKVEIERTVAAPSVFIFPPSDEQLKSGTASVVCLLNNFYPREAKVQWKVDNALQSGNSQESVTEQDSKDSTYSLSSTLTLSKADYEKHKVYACEVTHQGLSSPVTKSFNRGEC	112
GpH7-A5/GpH7-B3 variant I336_03V/GpL16-k0 (antibody, human IgG1, kappa, heterodimerized, mutation in one H chain only; also called He Ab) heavy 1: not shown heavy 2: not shown light: DIVMTQSPLSLPVTPGEPASISCQASESLVHSNRNTYLHWYLQKPGQSPQLLIYKVSNRFSGVPDRFSGSGSGTDFTLKISRVEAEDVGVYYCSQNTHVPPTFGQGTKVEIERTVAAPSVFIFPPSDEQLKSGTASVVCLLNNFYPREAKVQWKVDNALQSGNSQESVTEQDSKDSTYSLSSTLTLSKADYEKHKVYACEVTHQGLSSPVTKSFNRGEC	102
GpH7-A5/GpH7-B3 variant L234_15Y/GpL16-k0 (antibody, human IgG1, kappa, heterodimerized, mutation in one H chain only; also called He Ab) heavy 1: not shown heavy 2: not shown light: DIVMTQSPLSLPVTPGEPASISCQASESLVHSNRNTYLHWYLQKPGQSPQLLIYKVSNRFSGVPDRFSGSGSGTDFTLKISRVEAEDVGVYYCSQNTHVPPTFGQGTKVEIERTVAAPSVFIFPPSDEQLKSGTASVVCLLNNFYPREAKVQWKVDNALQSGNSQESVTEQDSKDSTYSLSSTLTLSKADYEKHKVYACEVTHQGLSSPVTKSFNRGEC	120
GpH7-A5/GpH7-B3 variant L234_20W/GpL16-k0 (antibody, human IgG1, kappa, heterodimerized, mutation in one H chain only; also called He Ab) heavy 1: not shown heavy 2: not shown light: DIVMTQSPLSLPVTPGEPASISCQASESLVHSNRNTYLHWYLQKPGQSPQLLIYKVSNRFSGVPDRFSGSGSGTDFTLKISRVEAEDVGVYYCSQNTHVPPTFGQGTKVEIERTVAAPSVFIFPPSDEQLKSGTASVVCLLNNFYPREAKVQWKVDNALQSGNSQESVTEQDSKDSTYSLSSTLTLSKADYEKHKVYACEVTHQGLSSPVTKSFNRGEC	114
GpH7-A5/GpH7-B3 variant K326_12R/GpL16-k0 (antibody, human IgG1, kappa, heterodimerized, mutation in one H chain only; also called He Ab) heavy 1: not shown heavy 2: not shown light: DIVMTQSPLSLPVTPGEPASISCQASESLVHSNRNTYLHWYLQKPGQSPQLLIYKVSNRFSGVPDRFSGSGSGTDFTLKISRVEAEDVGVYYCSQNTHVPPTFGQGTKVEIERTVAAPSVFIFPPSDEQLKSGTASVVCLLNNFYPREAKVQWKVDNALQSGNSQESVTEQDSKDSTYSLSSTLTLSKADYEKHKVYACEVTHQGLSSPVTKSFNRGEC	101
GpH7-A5/GpH7-B3 variant K334_19Q/GpL16-k0 (antibody, human IgG1, kappa, heterodimerized, mutation in one H chain only; also called He Ab) heavy 1: not shown heavy 2: not shown light: DIVMTQSPLSLPVTPGEPASISCQASESLVHSNRNTYLHWYLQKPGQSPQLLIYKVSNRFSGVPDRFSGSGSGTDFTLKISRVEAEDVGVYYCSQNTHVPPTFGQGTKVEIERTVAAPSVFIFPPSDEQLKSGTASVVCLLNNFYPREAKVQWKVDNALQSGNSQESVTEQDSKDSTYSLSSTLTLSKADYEKHKVYACEVTHQGLSSPVTKSFNRGEC	101
GpH7-A5/GpH7-B3 variant E333_14T/GpL16-k0 (antibody, human IgG1, kappa, heterodimerized, mutation in one H chain only; also called He Ab) heavy 1: not shown heavy 2: not shown light: DIVMTQSPLSLPVTPGEPASISCQASESLVHSNRNTYLHWYLQKPGQSPQLLIYKVSNRFSGVPDRFSGSGSGTDFTLKISRVEAEDVGVYYCSQNTHVPPTFGQGTKVEIERTVAAPSVFIFPPSDEQLKSGTASVVCLLNNFYPREAKVQWKVDNALQSGNSQESVTEQDSKDSTYSLSSTLTLSKADYEKHKVYACEVTHQGLSSPVTKSFNRGEC	100
GpH7-A5/GpH7-B3 variant E333_08L/GpL16-k0 (antibody, human IgG1, kappa, heterodimerized, mutation in one H chain only; also called He Ab) heavy 1: not shown heavy 2: not shown light: DIVMTQSPLSLPVTPGEPASISCQASESLVHSNRNTYLHWYLQKPGQSPQLLIYKVSNRFSGVPDRFSGSGSGTDFTLKISRVEAEDVGVYYCSQNTHVPPTFGQGTKVEIERTVAAPSVFIFPPSDEQLKSGTASVVCLLNNFYPREAKVQWKVDNALQSGNSQESVTEQDSKDSTYSLSSTLTLSKADYEKHKVYACEVTHQGLSSPVTKSFNRGEC	102
GpH7-A5/GpH7-B3 variant G236_14T/GpL16-k0 (antibody, human IgG1, kappa, heterodimerized, mutation in one H chain only; also called He Ab) heavy 1: not shown heavy 2: not shown light: DIVMTQSPLSLPVTPGEPASISCQASESLVHSNRNTYLHWYLQKPGQSPQLLIYKVSNRFSGVPDRFSGSGSGTDFTLKISRVEAEDVGVYYCSQNTHVPPTFGQGTKVEIERTVAAPSVFIFPPSDEQLKSGTASVVCLLNNFYPREAKVQWKVDNALQSGNSQESVTEQDSKDSTYSLSSTLTLSKADYEKHKVYACEVTHQGLSSPVTKSFNRGEC	103
GpH7-A5/GpH7-B3 variant K326_01G/GpL16-k0 (antibody, human IgG1, kappa, heterodimerized, mutation in one H chain only; also called He Ab) heavy 1: not shown heavy 2: not shown light: DIVMTQSPLSLPVTPGEPASISCQASESLVHSNRNTYLHWYLQKPGQSPQLLIYKVSNRFSGVPDRFSGSGSGTDFTLKISRVEAEDVGVYYCSQNTHVPPTFGQGTKVEIERTVAAPSVFIFPPSDEQLKSGTASVVCLLNNFYPREAKVQWKVDNALQSGNSQESVTEQDSKDSTYSLSSTLTLSKADYEKHKVYACEVTHQGLSSPVTKSFNRGEC	100
GpH7-A5/GpH7-B3 variant E333_13S/GpL16-k0 (antibody, human IgG1, kappa, heterodimerized, mutation in one H chain only; also called He Ab) heavy 1: not shown heavy 2: not shown light: DIVMTQSPLSLPVTPGEPASISCQASESLVHSNRNTYLHWYLQKPGQSPQLLIYKVSNRFSGVPDRFSGSGSGTDFTLKISRVEAEDVGVYYCSQNTHVPPTFGQGTKVEIERTVAAPSVFIFPPSDEQLKSGTASVVCLLNNFYPREAKVQWKVDNALQSGNSQESVTEQDSKDSTYSLSSTLTLSKADYEKHKVYACEVTHQGLSSPVTKSFNRGEC	101
